Test results: patent publication US20240343811A1 (SHANDONG SIMCERE BIOPHARMACUTICAL, published 2024)
Like-named read-outs stand apart in the source and are kept apart here.

Experiments:
[1] = molecular target: T1, human CD16b (NA1), full length, on FlpinCHO cells (human, UniProt O75015 17-200); assay: FACS on FlpinCHO cells
T1 construct: also called FlpinCHO-human CD16b (NA1)
T1 chain: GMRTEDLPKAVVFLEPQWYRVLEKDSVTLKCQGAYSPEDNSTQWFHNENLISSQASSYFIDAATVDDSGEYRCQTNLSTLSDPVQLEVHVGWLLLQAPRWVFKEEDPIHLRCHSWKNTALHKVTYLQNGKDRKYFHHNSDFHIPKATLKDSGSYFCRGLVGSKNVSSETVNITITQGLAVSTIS
Procedure, shortened: (§1)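 Trypsin-detached FlpinCHO cells expressing full-length CD16b were blocked in PBS+2% BSA and incubated on ice for 1 hour with antibody at varying concentrations. Binding read by flow cytometry as MFI; EC50 from curve fitting.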

[2] = molecular target: T2, human CD16b (NA2), full length, on FlpinCHO cells (human, UniProt O75015 17-200); assay: FACS on FlpinCHO cells
T2 construct: also called FlpinCHO-human CD16b (NA2)
T2 chain: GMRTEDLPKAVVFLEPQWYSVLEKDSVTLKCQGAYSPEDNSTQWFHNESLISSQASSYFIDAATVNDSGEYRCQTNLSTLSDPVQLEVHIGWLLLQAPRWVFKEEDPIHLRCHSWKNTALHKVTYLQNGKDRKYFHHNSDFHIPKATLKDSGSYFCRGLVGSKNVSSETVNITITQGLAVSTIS
Procedure, shortened: as §1

[3] = molecular target: human CD16a (158V), full length, on cells (human, UniProt P08637 17-254); assay: cell-based or functional assay
Sequence of human CD16a (158V), full length, on cells (P08637 17-254 F176V limits assumed): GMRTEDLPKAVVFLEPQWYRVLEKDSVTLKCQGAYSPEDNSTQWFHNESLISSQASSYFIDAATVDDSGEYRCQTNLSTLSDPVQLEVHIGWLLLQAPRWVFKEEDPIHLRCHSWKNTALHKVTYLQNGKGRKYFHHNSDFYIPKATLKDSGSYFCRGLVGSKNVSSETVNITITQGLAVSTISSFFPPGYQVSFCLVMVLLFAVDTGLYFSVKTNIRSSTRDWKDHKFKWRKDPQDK

[4] = molecular target: T3, CD16 on primary human NK cells (human, UniProt P08637 17-254); assay: FACS on human NK cells, biotinylated antibody
T3 construct: whole, on cells; also called resting NK cells

Human CD16b (NA2)-his = molecular target: T4, Human CD16b (NA2)-his (human); assay: SPR (Biacore), antibody captured on Protein A
T4 construct: entry holds ECD, linker, His tag and AVI tag
T4 chain: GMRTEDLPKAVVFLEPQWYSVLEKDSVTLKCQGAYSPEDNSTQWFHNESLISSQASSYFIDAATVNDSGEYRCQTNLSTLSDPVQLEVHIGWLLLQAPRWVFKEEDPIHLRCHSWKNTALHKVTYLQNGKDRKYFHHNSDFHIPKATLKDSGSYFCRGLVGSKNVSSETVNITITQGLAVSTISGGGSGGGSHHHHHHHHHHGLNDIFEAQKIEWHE
Procedure, shortened: (§2)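 Protein A–captured antibody was probed with CD16-his ECD in HBS-EP+ at 25 °C: five 2-fold dilutions from 200 nM, 240 s at 30 μL/min, dissociation up to 600 s. Glycine pH 1.5 regenerated the chip. Apparent KD came from a double-referenced 1:1 Langmuir fit.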

Human CD16b (SH)-his = molecular target: T5, Human CD16b (SH)-his (human); assay: SPR (Biacore), antibody captured on Protein A
T5 construct: entry holds ECD, linker, His tag and AVI tag
T5 chain: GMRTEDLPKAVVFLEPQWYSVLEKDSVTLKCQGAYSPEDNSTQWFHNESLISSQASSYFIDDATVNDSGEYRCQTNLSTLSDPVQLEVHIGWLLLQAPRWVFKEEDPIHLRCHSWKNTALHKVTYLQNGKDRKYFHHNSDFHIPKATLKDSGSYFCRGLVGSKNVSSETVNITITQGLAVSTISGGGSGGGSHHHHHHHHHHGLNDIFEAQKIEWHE
Procedure, shortened: as §2

[5] = molecular target: T6, Cynomolgus monkey CD16-his (cynomolgus monkey); assay: SPR (Biacore), antibody captured on Protein A
T6 construct: entry holds ECD, AVI tag, linker and His tag; also called cyno CD16-ECD his; Cyno CD16
T6 chain: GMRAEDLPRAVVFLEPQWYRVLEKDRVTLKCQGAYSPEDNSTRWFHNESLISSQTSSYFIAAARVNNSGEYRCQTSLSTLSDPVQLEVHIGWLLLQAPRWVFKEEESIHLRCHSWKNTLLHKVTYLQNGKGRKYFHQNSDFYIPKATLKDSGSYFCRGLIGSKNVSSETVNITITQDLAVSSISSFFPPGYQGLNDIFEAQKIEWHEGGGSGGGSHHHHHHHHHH
Procedure, shortened: as §2

[6] = molecular target: T1, human CD16b (NA1), full length, on …; assay: FACS on FlpinCHO cells
Procedure, shortened: as §1

[7] = molecular target: T2, human CD16b (NA2), full length, on …; assay: FACS on FlpinCHO cells
Procedure, shortened: as §1

Row | Binder | EC50 [1] | Maximum mean fluorescence intensity [1] | EC50 [2] | Maximum mean fluorescence intensity [2] | EC50, activation activity for Jurkat cell [3] | Maximum fluorescence value [3] | EC50 [4] | Maximum mean fluorescence intensity [4] | Kd (Human CD16b (NA2)-his) | koff (Human CD16b (NA2)-his) | kon (Human CD16b (NA2)-his) | Kd (Human CD16b (SH)-his) | koff (Human CD16b (SH)-his) | kon (Human CD16b (SH)-his) | Kd [5] | koff [5] | kon [5] | EC50 [6] | Maximum mean fluorescence intensity [6] | Maximum mean fluorescence intensity [7] | other results
1 | VHH11 VHH-Fc antibody (Fc fusion) EVQVVESGGGLAQAGGSLRLSCAVSGITFSSYAMGWYRQDPGKQRELVAAINRFGLTNYADSVKGRFTISRDNAKNTVYLQMTSLKPEDTAVYYCNTGGVYSHPNYYTGTYWGQGTQVTVSSEPKSSDKTHTCPPCPAPEFEGGPSVFLFPPKPKDTLMISRTPEVTCVVVAVSHEDPEVKFNWYVDGVEVHNAKTKPREEQYNSTYRVVSVLTVLHQDWLNGKEYKCKVSNKALPAPIEKTISKAKGQPREPQVYTLPPSREEMTKNQVSLTCLVKGFYPSDIAVEWESNGQPENNYKTTPPVLDSDGSFFLYSKLTVDKSRWQQGNVFSCSVMHEALHNHYTQKSLSLSPGK | 1.03 nM | 37900 | 1.43 nM | 56900 | 0.03 nM | 166000 | 0.95 nM | 60700 | 4920 nM | 0.2 s⁻¹ | 40700 M⁻¹ s⁻¹ | 4930 nM | 0.193 s⁻¹ | 39100 M⁻¹ s⁻¹ | 23.6 nM | 0.015 s⁻¹ | 633000 M⁻¹ s⁻¹ | – | – | – | –
2 | VHH12 VHH-Fc antibody (Fc fusion) QVQLVESGGGLVQAGGSLRLSCAASGITFSSYAMGWYRQAPGKQRELVAAINRFGLTNYADFVKGRFTISRVNAKNTVYLQMTSLKPEDTAVYYCNTGGVYSHPDYYTGTYWGQGTQVTVSSEPKSSDKTHTCPPCPAPEFEGGPSVFLFPPKPKDTLMISRTPEVTCVVVAVSHEDPEVKFNWYVDGVEVHNAKTKPREEQYNSTYRVVSVLTVLHQDWLNGKEYKCKVSNKALPAPIEKTISKAKGQPREPQVYTLPPSREEMTKNQVSLTCLVKGFYPSDIAVEWESNGQPENNYKTTPPVLDSDGSFFLYSKLTVDKSRWQQGNVFSCSVMHEALHNHYTQKSLSLSPGK | 0.62 nM | 58100 | 0.96 nM | 79100 | 0.02 nM | 165000 | 0.4 nM | 46500 | 1050 nM | 0.0998 s⁻¹ | 95100 M⁻¹ s⁻¹ | 1160 nM | 0.106 s⁻¹ | 91500 M⁻¹ s⁻¹ | 8.51 nM | 0.0101 s⁻¹ | 1.18e+06 M⁻¹ s⁻¹ | 0.7 nM | 60500 | 87900 | –
3 | VHH06 VHH-Fc antibody (Fc fusion) EVQLVESGGGLVQAGGSLRLSCVASGSTWTTYAVRWYRQAPGKQREWVAFISVDGSTNYPDSVKGRFIVSRDNAKNTVYLQMNSLKPEDTADYICRVGGQYWGQGTQVTVSSEPKSSDKTHTCPPCPAPEFEGGPSVFLFPPKPKDTLMISRTPEVTCVVVAVSHEDPEVKFNWYVDGVEVHNAKTKPREEQYNSTYRVVSVLTVLHQDWLNGKEYKCKVSNKALPAPIEKTISKAKGQPREPQVYTLPPSREEMTKNQVSLTCLVKGFYPSDIAVEWESNGQPENNYKTTPPVLDSDGSFFLYSKLTVDKSRWQQGNVFSCSVMHEALHNHYTQKSLSLSPGK | 1.41 nM | 33300 | – | 1930 | 0.04 nM | 169000 | 1.42 nM | 69600 | – | – | – | – | – | – | – | – | – | 0.74 nM | 54100 | 468 | binding result [2]: no binding (tested: 100 nM)
